For orientation: Kd means the free concentration of one partner at which half of the binding sites on the other are occupied at equilibrium, for simple one-to-one binding. A lower Kd goes with a tighter complex.

This is an account of results in PMC12855868, “Deep Mutational Scanning of FDX1 Identifies Key Structural Determinants of Lipoylation and Cuproptosis” (Nature Communications, 2025).

Test [1] has as its target T1, FDX1 WT (aa 61-184), N-terminal hexa-histidine tag (human), P10109.
T1 chain: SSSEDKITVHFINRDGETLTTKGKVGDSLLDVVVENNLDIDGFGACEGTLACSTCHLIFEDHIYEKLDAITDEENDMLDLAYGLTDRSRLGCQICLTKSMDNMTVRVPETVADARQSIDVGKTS
As to the kind of experiment: Temperature-Related Intensity Change (TRIC) fluorescence; 100 nM Red-Tris-NTA-labelled His-tagged FDX1 WT or variant as target, tagless LIAS serially diluted (10 points from 63 µM); anaerobic; 25 mM MOPS pH 7.5, 125 mM KCl, 125 mM NaCl, 5% glycerol, 0.05% Tween; 30 min at room temperature, read at 22 °C; Dianthus NT.23. The conditions noted are these: remark: other sources report otherwise.

Test [2] concerns the target T2, FDXR (a.a 33-491), tagless (human, UniProt P22570 33-491, labelled with the RED-NHS 2nd generation protein labeling kit).
T2 construct: ferredoxin reductase (FDXR), human, residues 33-491, lacking the mitochondrial transit peptide; pDWSUMO; Cleavage of the SUMO tag by ULP1 leaves a Gly-His appendage at the N-terminus; also called ferredoxin reductase; mitochondrial NADPH-dependent ferredoxin reductase; source: E. coli BL21 (DE3), purified; not shown: His6-SUMO, N-terminal, cleaved
T2 sequence (looked up): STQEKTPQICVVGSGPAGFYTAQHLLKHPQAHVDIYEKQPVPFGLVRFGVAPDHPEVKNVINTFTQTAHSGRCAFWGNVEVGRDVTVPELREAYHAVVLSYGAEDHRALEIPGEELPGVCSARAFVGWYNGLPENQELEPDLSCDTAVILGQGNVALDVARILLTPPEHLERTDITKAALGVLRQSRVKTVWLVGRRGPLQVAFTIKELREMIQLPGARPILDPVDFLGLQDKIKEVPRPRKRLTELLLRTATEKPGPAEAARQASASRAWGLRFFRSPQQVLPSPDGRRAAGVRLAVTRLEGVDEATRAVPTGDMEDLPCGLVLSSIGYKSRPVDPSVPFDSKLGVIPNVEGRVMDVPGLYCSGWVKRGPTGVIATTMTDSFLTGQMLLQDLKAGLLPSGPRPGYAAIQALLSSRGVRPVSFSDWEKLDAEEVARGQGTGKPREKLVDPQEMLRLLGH
As to the kind of experiment: Temperature-Related Intensity Change (TRIC) fluorescence; 50 nM RED-NHS-labelled tagless FDXR as target, His-tagged FDX1 WT or variant serially diluted (11 points from 54-68 µM); anaerobic; 25 mM MOPS pH 7.5, 125 mM KCl, 125 mM NaCl, 5% glycerol, 0.05% Tween; 30 min at room temperature, read at 22 °C; Dianthus NT.23. The conditions noted are these: both partners purified.

Test [3] has as its target T3, LIAS (aa 28-372), tagless (UniProt O43766 28-372).
T3 construct: lipoic acid synthase (LIAS), residues 28-372, lacking the mitochondrial transit peptide; pDWSUMO; Cleavage of the SUMO tag by ULP1 leaves a Gly-His appendage at the N-terminus; Carries reconstituted Fe-S clusters; also called lipoic acid synthase; source: E. coli BL21 (DE3) carrying pDB1282, purified, iron-sulfur clusters reconstituted; not shown: His6-SUMO, N-terminal, cleaved
T3 sequence (looked up): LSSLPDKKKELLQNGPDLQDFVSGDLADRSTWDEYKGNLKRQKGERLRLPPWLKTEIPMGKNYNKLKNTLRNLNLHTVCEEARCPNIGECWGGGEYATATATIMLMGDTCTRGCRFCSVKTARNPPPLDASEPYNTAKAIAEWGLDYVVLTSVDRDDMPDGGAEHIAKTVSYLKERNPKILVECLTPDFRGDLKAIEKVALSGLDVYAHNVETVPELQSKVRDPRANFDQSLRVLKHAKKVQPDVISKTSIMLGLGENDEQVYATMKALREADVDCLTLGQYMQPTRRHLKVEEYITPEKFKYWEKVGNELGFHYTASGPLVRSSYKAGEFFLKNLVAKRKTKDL
Nature of the test: Temperature-Related Intensity Change (TRIC) fluorescence; 100 nM Red-Tris-NTA-labelled His-tagged FDX1 WT or variant as target, tagless LIAS serially diluted (10 points from 63 µM); anaerobic; 25 mM MOPS pH 7.5, 125 mM KCl, 125 mM NaCl, 5% glycerol, 0.05% Tween; 30 min at room temperature, read at 22 °C; Dianthus NT.23. The conditions noted are these: both partners purified.

B1: LIAS (aa 28-372), tagless, O43766 28-372 (enzyme)
chain: LSSLPDKKKELLQNGPDLQDFVSGDLADRSTWDEYKGNLKRQKGERLRLPPWLKTEIPMGKNYNKLKNTLRNLNLHTVCEEARCPNIGECWGGGEYATATATIMLMGDTCTRGCRFCSVKTARNPPPLDASEPYNTAKAIAEWGLDYVVLTSVDRDDMPDGGAEHIAKTVSYLKERNPKILVECLTPDFRGDLKAIEKVALSGLDVYAHNVETVPELQSKVRDPRANFDQSLRVLKHAKKVQPDVISKTSIMLGLGENDEQVYATMKALREADVDCLTLGQYMQPTRRHLKVEEYITPEKFKYWEKVGNELGFHYTASGPLVRSSYKAGEFFLKNLVAKRKTKDL
Take B1: the Kd in test [1] is 3.2 µM.

B2: FDX1 WT (aa 61-184), N-terminal hexa-histidine tag (domain or fragment, human, UniProt P10109 61-184, looked up)
chain: SSSEDKITVHFINRDGETLTTKGKVGDSLLDVVVENNLDIDGFGACEGTLACSTCHLIFEDHIYEKLDAITDEENDMLDLAYGLTDRSRLGCQICLTKSMDNMTVRVPETVADARQSIDVGKTS
notes: ferredoxin 1 (FDX1), human, residues 61-184, lacking the mitochondrial transit peptide; pET28a; Carries a reconstituted Fe-S cluster; In the FDX1-LIAS TRIC assay it was labelled on the His tag with the Red-Tris-NTA 2nd generation dye; in the FDXR assay it was the unlabelled ligand; also called ferredoxin 1; source: E. coli BL21 (DE3) carrying pDB1282, purified, iron-sulfur cluster reconstituted; …
Regarding B2, binding in test [2] was put at a Kd of 1500 ± 200 nM.

B3: FDX1 D136R (aa 61-184), N-terminal hexa-histidine tag (domain or fragment, human, UniProt P10109 61-184, looked up)
chain: SSSEDKITVHFINRDGETLTTKGKVGDSLLDVVVENNLDIDGFGACEGTLACSTCHLIFEDHIYEKLDAITDEENRMLDLAYGLTDRSRLGCQICLTKSMDNMTVRVPETVADARQSIDVGKTS
notes: ferredoxin 1 (FDX1), human, residues 61-184, lacking the mitochondrial transit peptide; pET28a; Carries a reconstituted Fe-S cluster; Labelled with Red-Tris-NTA dye in the LIAS assay only; source: E. coli BL21 (DE3) carrying pDB1282, purified, iron-sulfur cluster reconstituted; not shown: His6, N-terminal, kept
For B3, the Kd was found to be 2200 ± 300 nM in test [2] and 4.5 ± 0.8 µM in test [3].

B4: FDX1 D139A (aa 61-184), N-terminal hexa-histidine tag (domain or fragment, human, UniProt P10109 61-184, looked up)
chain: SSSEDKITVHFINRDGETLTTKGKVGDSLLDVVVENNLDIDGFGACEGTLACSTCHLIFEDHIYEKLDAITDEENDMLALAYGLTDRSRLGCQICLTKSMDNMTVRVPETVADARQSIDVGKTS
notes: as for B3
In the case of B4, the Kd was 1500 ± 300 nM in test [2] and 4.9 ± 0.6 µM in test [3].

B5: FDX1 D136A (aa 61-184), N-terminal hexa-histidine tag (domain or fragment, human, UniProt P10109 61-184, looked up)
chain: SSSEDKITVHFINRDGETLTTKGKVGDSLLDVVVENNLDIDGFGACEGTLACSTCHLIFEDHIYEKLDAITDEENAMLDLAYGLTDRSRLGCQICLTKSMDNMTVRVPETVADARQSIDVGKTS
notes: as for B3
As to B5, the Kd turned out to be 1800 ± 300 nM in test [2] and 3.2 ± 0.3 µM in test [3].

B6: FDX1 D139R (aa 61-184), N-terminal hexa-histidine tag (domain or fragment, human, UniProt P10109 61-184, looked up)
chain: SSSEDKITVHFINRDGETLTTKGKVGDSLLDVVVENNLDIDGFGACEGTLACSTCHLIFEDHIYEKLDAITDEENDMLRLAYGLTDRSRLGCQICLTKSMDNMTVRVPETVADARQSIDVGKTS
notes: as for B3
B6: the Kd in test [2] was 2100 ± 200 nM; in test [3], 2.5 ± 0.6 µM.
